Source: EP4442275A1, “ANTI-TYPE II COLLAGEN ANTIBODIES” (ModiQuest B.V., priority 2023, dated 2024)
Entries after “also recorded” stand apart in the source; their conditions may differ.

Experiments:
human cartilage explants [1] = molecular target: T1, human cartilage explants (Homo sapiens, UniProt P02458); experiment: Binding of 111In-labeled DTPA-conjugated antibodies to human cartilage explants (gamma counting); conditions: Figure 8
T1 construct: From surgical waste material obtained after total knee arthroplasty; from tissue; host or cells: human articular cartilage from joint replacement surgery of OA patients
T1 sequence (P02458 182-1241 limits assumed): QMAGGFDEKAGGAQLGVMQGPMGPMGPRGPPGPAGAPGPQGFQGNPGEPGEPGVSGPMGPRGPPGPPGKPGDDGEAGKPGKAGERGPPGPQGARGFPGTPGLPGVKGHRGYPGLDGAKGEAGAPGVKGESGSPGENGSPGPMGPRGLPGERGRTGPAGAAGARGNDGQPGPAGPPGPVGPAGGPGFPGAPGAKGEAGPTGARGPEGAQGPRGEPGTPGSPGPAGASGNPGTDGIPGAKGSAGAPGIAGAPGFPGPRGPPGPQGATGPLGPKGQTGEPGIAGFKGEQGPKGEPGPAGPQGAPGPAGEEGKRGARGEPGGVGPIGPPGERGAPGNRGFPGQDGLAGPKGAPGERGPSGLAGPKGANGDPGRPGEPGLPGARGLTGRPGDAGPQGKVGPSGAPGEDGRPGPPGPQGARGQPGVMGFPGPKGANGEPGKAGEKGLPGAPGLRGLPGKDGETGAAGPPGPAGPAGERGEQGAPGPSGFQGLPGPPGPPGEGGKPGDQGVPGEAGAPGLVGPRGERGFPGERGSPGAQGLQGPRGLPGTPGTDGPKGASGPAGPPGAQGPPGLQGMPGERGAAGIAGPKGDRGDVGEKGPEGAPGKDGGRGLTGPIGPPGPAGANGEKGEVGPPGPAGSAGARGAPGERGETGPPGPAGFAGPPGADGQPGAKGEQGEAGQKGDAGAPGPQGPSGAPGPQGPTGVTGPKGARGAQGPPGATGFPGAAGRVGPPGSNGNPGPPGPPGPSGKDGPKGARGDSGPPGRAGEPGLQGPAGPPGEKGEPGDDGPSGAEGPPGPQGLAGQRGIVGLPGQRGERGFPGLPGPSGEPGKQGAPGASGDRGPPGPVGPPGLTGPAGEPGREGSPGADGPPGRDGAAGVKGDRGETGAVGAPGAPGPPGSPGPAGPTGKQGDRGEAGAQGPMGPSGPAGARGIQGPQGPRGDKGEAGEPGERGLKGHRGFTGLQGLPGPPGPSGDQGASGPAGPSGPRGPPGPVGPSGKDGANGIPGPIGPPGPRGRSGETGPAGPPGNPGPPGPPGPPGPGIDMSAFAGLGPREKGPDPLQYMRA

human cartilage explants [2] = molecular target: T1, human cartilage explants; experiment: Binding of DTPA-IrDye 800CW conjugated antibodies to human cartilage with or without trypsin (Odyssey CLX imaging); conditions: 4 µg/ml, 4 H, 37°C; preserved regions of OA cartilage; Figure 9
Procedure: From surgical waste material obtained after total knee arthroplasty (Patient number SMK1186), human cartilage from the macroscopically preserved regions was isolated with a surgical blade, and 6 mm punches were made using a biopsy punch. Human cartilage explants were overnight incubated in DMEM/F12 without FBS supplemented with 10.000 U/mL penicillin/streptomycin at 37°C with 5% CO2. Half of the explants were incubated for 1 H with 2.5% Trypsin-EDTA in PBS at 37°C on a roller in a 50 ml falcon tube. The other half was incubated under the same conditions in PBS. The trypsin-EDTA was replaced by 1% FBS in PBS (to block the enzymatic activity of trypsin), in which the explants were incubated for 15 min. Cartilage explants were washed with PBS (3x 5 min). Three explants/condition were divided over sterile FACS tubes and exposed 4 µg/ml DTPA-IrDye 800CW isotype (2.201a) (substitution ratio IrDye 800CW= 1.54) or DTPA-IrDye 800CW anti-COLL II antibody (MQ4.112 hz3_1) (substitution ratio IrDye 800CW= 1.83) in DMEM/F12 media supplemented with 0.5% BSA (final volume was 1 ml) for 4 H on a roller at 37°C. […]
The explants were transferred to the bottom of wells of a 96-well plate to image with the Odyssey CLX near infrared imaging system. The fluorescent signal was measured in manually drawn ROI around the cartilage explants which was corrected for background signal by the software. […]

human cartilage = molecular target: T2, human cartilage (Homo sapiens, UniProt P02458); experiment: Ex vivo binding to human cartilage with different stages of OA-induced damage (Odyssey CLX imaging)
T2 construct: From surgical waste material obtained after total knee arthroplasty; from tissue; host or cells: human articular cartilage from joint replacement surgery of OA patients
T2 sequence (P02458 182-1241 limits assumed): as above
Procedure: From surgical waste material obtained after total knee arthroplasty (Patient number SMK1180), human cartilage from the macroscopically preserved, medium damage and severe damaged regions were isolated with a surgical blade. Human cartilage explants were overnight incubated in DMEM/F12 without FBS supplemented with 10.000 U/mL penicillin/streptomycin at 37°C with 5% CO2. Punches (6 mm) were generated using a biopsy punch. Three explants/damage condition were divided over sterile FACS tubes and exposed 4 µg/ml DTPA-IrDye 800CW isotype (2.201a) (substitution ratio IrDye 800CW= 1.54) or DTPA-IrDye 800CW anti-COLL II antibody (MQ4.112 hz3_1) (substitution ratio IrDye 800CW= 1.83) in DMEM/F12 media supplemented with 0.5% BSA (final volume was 1 ml) for 4 H on a roller at 37°C. After this incubation the samples were transferred to 50 ml falcon tubes (1 tube/condition, 3 punches/tube) and washed with PBS (50 ml) at 37°C (1x 30 min), followed by an o/n wash with PBS on a shaker at 4°C.
The explants were transferred to the bottom of wells of a 96-well plate to measure the cartilage associated fluorescence with the Odyssey CLX near infrared imaging system (Figure 11). The cartilage was fixed in formalin for 4 H and thereafter transferred to 70% ethanol until processed/embedded in paraffin. […]

B1: [^111In]In-DTPA-MQ4.112hz_3_1: MQ4.112hz_3_1 conjugated with DTPA and labeled with 111In (conjugate)
VH: DVQLQESGPGLVKPSETLSLTCAVSGYSITSDYYWHWIRQFPGKGLEWMGYISYDGSNNYNPSLKSRVTISVDTSKNQFSLKLSSVTAADTAVYYCARDDDAMDYWGQGTLVTVSS
VL: DIQMTQSPSSLSASVGDRVTITCRASQDISNYLNWYQQKPGKAPKLLIYYTSRLHSGVPSRFSGSGSGTDFTFTISSLQPEDIATYYCQQGNTLPPTFGQGTKVEIK
cartilage associated radioactivity corrected for their weight, trypsin-damaged human cartilage compared to non-treated explants (human cartilage explants [1]; 4 µg/ml, 1.5 H, 37°C): higher | cartilage associated radioactivity/gram in trypsin-damaged human cartilage compared to isotype (human cartilage explants [1]; p<0.001, One-way ANOVA): higher

B2: DTPA-IrDye 800CW anti-COLL II (MQ4.112 hz3_1): MQ4.112hz_3_1 dually conjugated with DTPA and IrDye 800CW, substitution ratio IrDye 800CW= 1.83 (conjugate)
VH: DVQLQESGPGLVKPSETLSLTCAVSGYSITSDYYWHWIRQFPGKGLEWMGYISYDGSNNYNPSLKSRVTISVDTSKNQFSLKLSSVTAADTAVYYCARDDDAMDYWGQGTLVTVSS
VL: DIQMTQSPSSLSASVGDRVTITCRASQDISNYLNWYQQKPGKAPKLLIYYTSRLHSGVPSRFSGSGSGTDFTFTISSLQPEDIATYYCQQGNTLPPTFGQGTKVEIK
binding (fluorescent signal) to trypsin-induced damaged human cartilage explants compared to untreated explants (human cartilage explants [2]): increased binding; also recorded: increases | localization of the fluorescent signal in sections of the explants (human cartilage; Figure 11 bottom, compared with SafO staining): localizes on the spots where visible cartilage damage is present | binding (fluorescent signal) to cartilage when OA-damage increases (human cartilage; macroscopically preserved, medium damage and severe damaged regions, 4 µg/ml, 4 H, Figure 11, listed as DTPA-IrDye 800CW anti-COLL II antibody): binds more; also recorded: increases
